# Assays:
# Assay type in all cases: biochemical
# [1] = HTP-analysis of yeast culture supernatants, no challenge (MUGal hydrolysis); settings: activity of the variant/activity of WT GLA (SEQ ID NO: 5), yeast supernatant
# How it was run: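 GLA variants were expressed in INVSc1 yeast grown in SD-Ura broth with glucose at 30° C., and culture supernatants were collected after 66-84 h. Supernatant was mixed with McIlvaine buffer pH 4.8 and MUGal (2 mM stock) in 50 mM citrate, 200 mM KCl, pH 4.6, incubated at 37° C. for 30-180 minutes, then quenched with sodium carbonate.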
# [2] = HTP-analysis of supernatants pretreated with acid (MUGal hydrolysis); settings: challenge at pH 4.2; activity of the variant/activity of WT GLA (SEQ ID NO: 5); yeast supernatant
# How it was run: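 GLA variants were secreted from INVSc1 yeast grown 66-84 h at 30° C. in SD-Ura with 2% glucose; supernatants were mixed with McIlvaine buffer pH 3.3-4.3 and held at 37° C. for 1-3 h. Residual activity on MUGal at pH 4.8 was then measured by fluorescence.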
# [3] = HTP-analysis of supernatants pretreated with base (MUGal hydrolysis); settings: challenge at pH 7.1; activity of the variant/activity of WT GLA (SEQ ID NO: 5); yeast supernatant
# How it was run: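 GLA variants were secreted by transformed INVSc1 yeast grown 66-84 h at 30° C. Supernatants were exposed to neutral-to-basic buffers (pH 7.0-9.7) at 37° C for 1-18 h, then assayed with MUGal in acidic citrate/McIlvaine buffer, with fluorescence read after quenching.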
Molecule,Relative Activity of GLA Variants After No Challenge (NC) [1],Relative Activity of GLA Variants After Challenge at pH 4.2 [2],Relative Activity of GLA Variants After Challenge at pH 7.1 [3]
"128 (protein, Synthetic Polypeptide sequence of Variant No. 128 of mature Human GLA) LDNGLARTPTMGWLHWERFMCNLDCQEEPDSCISEKLFMEMAELMVSEGWKDAGYEYLCIDDCWMAPQRDSEGRLQADPQRFPHGIRQLANYVHSKGLKLGIYADVGNKTCAGFPGSFGYYDIDAQTFADWGVDLLKFDGCYCDSLENLADGYKHMSLALNRTGRSIVYSCEWPLYMWPFQKPNYTEIRQYCNHWRNFADIDDSWKSIKSILDWTSFNQERIVDVAGPGGWNDPDMLVIGNFGLSWNQQVTQMALWAIMAAPLFMSNDLRHISPQAKALLQDKDVIAINQDPLGKQGYQLRQGDNFEVWERPLSGLAWAVAMINRQEIGGPRSYTIAVASLGKGVACNPACFITQLLPVKRKLGFYEWTSRLRSHINPTGTVLLQLENTTQMSKDLLL",+ (+ = 0.5 to 1.5 relative activity over WT GLA (SEQ ID NO: 5)),+ (+ = 0.5 to 1.5 relative activity over WT GLA (SEQ ID NO: 5)),+ (+ = 0.5 to 1.5 relative activity over WT GLA (SEQ ID NO: 5))
"133 (protein, Synthetic Polypeptide sequence of Variant No. 133 of mature Human GLA) LDNGLARTPTMGWLHWERFMCNLDCQEEPDSCISEKLFMEMAELMVSEGWKDAGYEYLCIDDCWMAPQRDSEGRLQADPQRFPHGIRQLANYVHSKGLKLGIYADVGNKTCAGFPGSFGYYDIDAQTFADWGVDLLKFDGCYCDSLENLADGYKHMSLALNRTGRSIVYSCEWPLYMWPFQKPNYTEIRQYCNHWRNFADIDDSWKSIKSILDWTSFNQERIVDVAGPGGWNDPDMLVIGNFGLSWNQQVTQMALWAIMAAPLFMSNDLRHISPQAKALLQDKDVIAINQDPLGKQGYQLRQGDNFEVWERPLSGLAWAVAMINRQEIGGPRSYTIAVASLGKGVACNPACFITQLLPVKRKLGFYEWTSRLRSHINPTGTVLLQLERTMQMSKDLLL",+ (+ = 0.5 to 1.5 relative activity over WT GLA (SEQ ID NO: 5)),+ (+ = 0.5 to 1.5 relative activity over WT GLA (SEQ ID NO: 5)),+ (+ = 0.5 to 1.5 relative activity over WT GLA (SEQ ID NO: 5))
"132 (protein, Synthetic Polypeptide sequence of Variant No. 132 of mature Human GLA) LDNGLARTPTMGWLHWERFMCNLDCQEEPDSCISEKLFYEMAELMVSEGWKDAGYEYLCIDDCWMAPQRDSEGRLQADPQRFPHGIRQLANYVHSKGLKLGIYADVGNKTCAGFPGSFGYYDIDAQTFADWGVDLLKFDGCYCDSLENLADGYKHMSLALNRTGRSIVYSCEWPLYMWPFQKPNYTEIRQYCNHWRNFADIDDSWKSIKSILDWTSFNQERIVDVAGPGGWNDPDMLVIGNFGLSWNQQVTQMALWAIMAAPLFMSNDLRHISPQAKALLQDKDVIAINQDPLGKQGYQLRQGDNFEVWERPLSGLAWAVAMINRQEIGGPRSYTIAVASLGKGVACNPACFITQLLPVKRKLGFYEWTSRLRSHINPTGTVLLQLENTMQMSKDLLL",+ (+ = 0.5 to 1.5 relative activity over WT GLA (SEQ ID NO: 5)),+ (+ = 0.5 to 1.5 relative activity over WT GLA (SEQ ID NO: 5)),+ (+ = 0.5 to 1.5 relative activity over WT GLA (SEQ ID NO: 5))
"134 (protein, Synthetic Polypeptide sequence of Variant No. 134 of mature Human GLA) LDNGLARTPTMGWLHWERFMCNLDCQEEPDSCISEKLFMEMAELMVSEGWKDAGYEYLCIDDCWMAPQRDSEGRLQADPQRFPHGIRQLAQYVHSKGLKLGIYADVGNKTCAGFPGSFGYYDIDAQTFADWGVDLLKFDGCYCDSLENLADGYKHMSLALNRTGRSIVYSCEWPLYMWPFQKPNYTEIRQYCNHWRNFADIDDSWKSIKSILDWTSFNQERIVDVAGPGGWNDPDMLVIGNFGLSWNQQVTQMALWAIMAAPLFMSNDLRHISPQAKALLQDKDVIAINQDPLGKQGYQLRQGDNFEVWERPLSGLAWAVAMINRQEIGGPRSYTIAVASLGKGVACNPACFITQLLPVKRKLGFYEWTSRLRSHINPTGTVLLQLENTMQMSKDLLL",+ (+ = 0.5 to 1.5 relative activity over WT GLA (SEQ ID NO: 5)),+ (+ = 0.5 to 1.5 relative activity over WT GLA (SEQ ID NO: 5)),+ (+ = 0.5 to 1.5 relative activity over WT GLA (SEQ ID NO: 5))
"36 (protein, Synthetic Polypeptide sequence of Variant No. 36 of mature Human GLA) LDNGLARTPTMGWLHWERFMCNLDCQEEPDSCISEKLFMEMAELMVSEGWKDAGYEYLCIDDCWMAPQRDSEGRLQADPQRFPHGIRQLANYVHSKGLKLGIYADVGNKTCAGFPGSFGYYDIDAQTFADWGVDLLKFDGCYCDSLENLADGYKHMSLALNRTGRSIVYSCEWPLYMWPFQKPNYTEIRQYCNHWRNFADIDDSWKSIKSILDWTSFNQERIVDVAGPGGWNDPDMLVIGNFGLSWNQQVTQMALWAIMAAPLFMSNDLRHISPQAKALLQDKDVIAINQDPLGKQGYQLRQGDNFEVWERPLSGLAWAVAMINRQEIGGPRSYTIAVASLGKGVACNPGCFITQLLPVKRKLGFYEWTSRLRSHINPTGTVLLQLENTMQMSKDLLL",+ (+ = 0.5 to 1.5 relative activity over WT GLA (SEQ ID NO: 5)),++ (++ = >1.5 to 2.5 relative activity over WT GLA (SEQ ID NO: 5)),++ (++ = >1.5 to 2.5 relative activity over WT GLA (SEQ ID NO: 5))
"130 (protein, Synthetic Polypeptide sequence of Variant No. 130 of mature Human GLA) LDNGLARTPTMGWLHWERFMCNLDCQEEPDSCISEKLFMEMAELMVSEGWKDAGYEYLCIDDCWMAPQRDSEGRLQADPQRFPHGIRQLANYVHSKGLKLGIYADVGNKTCAGFPGSFGYYDIDAQTFADWGVDLLKFDGCYCDSLENLADGYKHMSLALNRTGRSIVYSCEWPLYMWPFQKPNYTEIRQYCNHWRNFADIDDSWKSIKSILDWTSFNQERIVDVAGPGGWNDPDMLVIGNFGLSWNQQVTQMALWAIMAAPLFMSNDLRHISPQAKALLQDKDVIAINQDPLGKQGYQLRQGDNFEVWERPLSGLAWAVAMINRQEIGGPRSYTIAVASLGKGVACNPACFITQLLPVKRKLGFYEWTSRLRSHINPTGTVLLQLENTMQPSKDLLL",+ (+ = 0.5 to 1.5 relative activity over WT GLA (SEQ ID NO: 5)),++ (++ = >1.5 to 2.5 relative activity over WT GLA (SEQ ID NO: 5)),+ (+ = 0.5 to 1.5 relative activity over WT GLA (SEQ ID NO: 5))
"129 (protein, Synthetic Polypeptide sequence of Variant No. 129 of mature Human GLA) LDNGLARTPTMGWLHWERFMCNLDCQEEPDSCISEKLFMEMAELMVSEGWKDAGYEYLCIDDCWMAPQRDSEGRLQADPQRFPHGIRQLANYVHSKGLKLGIYADVGNKTCAGFPGSFGYYDIDAQTFADWGVDLLKFDGCYCDSLENLADGYKHMSLALNRTGRSIVYSCEWPLYMWPFQKPNYTEIRQYCNHWRNFADIDDSWKSIKSILDWTSFNQERIVDVAGPGGWNDPDMLVIGNFGLSWNQQVTQMALWAIMAAPLFMSNDLRHISPQAKALLQDKDVIAINQDPLGKQGYQLRQGDNFEVWERPLSGLAWAVAMINRQEIGGPRSYTIAVASLGKGVACNPACFITQLLPVKRKLGFYEWTSRLRSHINPTGTVLLQLENTMQGSKDLLL",+ (+ = 0.5 to 1.5 relative activity over WT GLA (SEQ ID NO: 5)),++ (++ = >1.5 to 2.5 relative activity over WT GLA (SEQ ID NO: 5)),++ (++ = >1.5 to 2.5 relative activity over WT GLA (SEQ ID NO: 5))
"131 (protein, Synthetic Polypeptide sequence of Variant No. 131 of mature Human GLA) LDNGLARTPTMGWLHWERFMCNLDCQEEPDSCISEKLFMEMAELMVSEGWKDAGYEYLCIDDCWMAPQRDSEGRLQADPQRFPHGIRQLANYVHSKGLKLGIYADVGNKTCAGFPGSFGYYDIDAQTFADWGVDLLKFDGCYCDSLENLADGYKHMSLALNRTGRSIVYSCEWPLYMWPFQKPNYTEIRQYCNHWRNFADIDDSWKSIKSILDWTSFNQERIVDVAGPGGWNDPDMLVIGNFGLSWNQQVTQMALWAIMAAPLFMSNDLRHISPQAKALLQDKDVIAINQDPLGKQGYQLRQGDNFEVWERPLSGLAWAVAMINRQEIGGPRSYTIAVASLGKGVACNPACFITQLLPVKRKLGFYEWTSRLRSHINPTGTVLLQLENTMQSSKDLLL",++ (++ = >1.5 to 2.5 relative activity over WT GLA (SEQ ID NO: 5)),+ (+ = 0.5 to 1.5 relative activity over WT GLA (SEQ ID NO: 5)),++ (++ = >1.5 to 2.5 relative activity over WT GLA (SEQ ID NO: 5))
